Positions count from the first letter of the chain named.
B1: 29H1: murine monoclonal anti-PDGF-C antibody, IgG1 κ; VL SEQ ID NO:17, VH SEQ ID NO:21 (antibody, listed as Mus musculus, V domains shown)
VH: EVQLVESGGDLVKPGGSLKLSCAASGFTFSNYGMSWVRQTPDKRLEWVATIGSGGHYTYYPDSVKGRFTISRDSAKSTLYLQMSSLRSDDTAIYYCARQAPLWDCSDYWGQGTTLTVSS
VL: DVLMTQTPLSLPVSLGDQASISCRSNQSIVHSNGDTYLEWYLQKPGQSPNLLIYKVSNRFSGVPDRFSGSGSGTDFTLKISRVEAEDLGVYYCFQGSHVPPTFGGGTKLEIK
B2: 5A2: murine monoclonal anti-PDGF-C antibody, IgG2b κ; VL SEQ ID NO:15, VH SEQ ID NO:19 (antibody, listed as Mus musculus, V domains shown)
VH: B1 VH with R87K, D89E
VL: B1 VL with N50K
B3: 16B1: murine monoclonal anti-PDGF-C antibody, IgG1 κ; VL SEQ ID NO:15, VH SEQ ID NO:18 (antibody, listed as Mus musculus, V domains shown)
VH: B1 VH with H56S, S77N, R87K, D89E, I93M, C105Y
VL: B1 VL with N50K
B4: Humanized mAb 5H7: humanized 5H7; VH SEQ ID NO:102, VL SEQ ID NO:103 (antibody, V domains shown)
VH: EVQLLESGGGLVQPGGSLRLSCAASGFTFSSYGMSWVRQTPGKGLEWVATIGYGGSFTYYPDSMKGRFTISRDNAKNTLYLQMNSLRAEDTAVYYCARQAPLWDYFDYWGQGTLLTVSS
VL: DVVMTQSPLSLPVTLGQPASISCRSSQTIVHSDGTTYLEWYLQKPGQSPRLLIYKVSNRFSGVPDRFSGSGSGTDFTLKISRVEAEDVGVYYCFQGSHVPPTFGQGTKLEIK
modifications: humanized variable heavy chain murine monoclonal antibody 5H7; humanized variable light chain murine monoclonal antibody 5H7
B5: 2D3: murine monoclonal anti-PDGF-C antibody, IgG1 κ; VL SEQ ID NO:14, VH SEQ ID NO:18 (antibody, listed as Mus musculus, V domains shown)
VH: B1 VH with H56S, S77N, R87K, D89E, I93M, C105Y
VL: B1 VL with S28T
B6: 5H7: murine monoclonal anti-PDGF-C antibody, IgG1 κ; VL SEQ ID NO:16, VH SEQ ID NO:20 (antibody, listed as Mus musculus, V domains shown)
VH: EVQLVESGGDLVKPGGSLKLSCAASGFTFSSYGMSWVRQTPDKRLEWVATIGYGGSFTYYPDSMKGRFTISRDNAKNTLFLQMSSLKSEDTAIYYCVRQAPLWDYFDYWGQGTTLTVSS
VL: B1 VL with N26S, S28T, N33D, D35T, P45A, N50K

Experiments:
[1] = biological target: T1, PDGFRα activation by human PDGF-C (Homo sapiens, UniProt Q9NRA1); assay: PathHunter PDGFRα receptor tyrosine kinase assay in U2OS PDGFRα PLCG1 cells; assay type: cell-based; conditions: for IC50: PDGF-C at EC80
T1 construct: the growth factor domain of PDGF-C (amino acids 235-345 of human PDGF-C); purchased R&D Systems 1687-CC/CF; host or cells: ligand added to U2OS PDGFRα PLCG1 cells (DiscoveRx, assay 93-0823C3) that express the transfected receptor
T1 sequence (Q9NRA1 235-345): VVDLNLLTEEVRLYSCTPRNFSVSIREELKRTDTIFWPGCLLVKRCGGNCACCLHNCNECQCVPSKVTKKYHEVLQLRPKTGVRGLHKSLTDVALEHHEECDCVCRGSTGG
Source text: To evaluate the inhibitory activity of anti-human PDGF-C antibodies on PDGFRα activation by human PDGF-C, the PathHunter® receptor tyrosine kinase assay for PDGFRα (93-0823C3) from DiscoveRx® was used. […] A small complementing fragment of β-gal, the Prolink™ tag (PK) has been fused recombinantly to the intracellular C-terminus of the receptor tyrosine kinase PDGFRα. The larger portion of β-gal, termed EA for enzyme acceptor, is co-expressed with an SH2 (Src Homology 2) phosphotyrosine binding domain. Ligand-induced activation of the receptor results in dimerization and intra-cellular cross-phosphorylation of the receptor. Subsequently, the SH2 domain specifically binds the phosphorylated receptor resulting in the complementation of the two β-gal fragments PK and EA, and formation of a functional β-gal enzyme. Following addition of a β-gal substrate, an easily detectable chemiluminescent signal is produced which is directly correlated to receptor activation. The LumiLITE™ microplate reader is fully compatible with all EFC-based assays of DiscoveRx® and is therefore used.
For the PathHunter® PDGFRα, assay, U2OS PDGFRα, PLCG1 (phospholipase Cγ as the source of the SH2 domain) cells from DiscoveRx® were used. Frozen cells were stored in liquid nitrogen. Upon thawing, cells were resuspended in pre-warmed thawing medium (i.e. culture medium without the selection antibiotics Geneticin and Hygromycin B). After 48 hours of culture in a 5% CO2 incubator at 37° C., thawing medium was replaced by culture medium (MEM Eagle 1× (30-2003 from Invitrogen), 10% fetal bovine serum (SH30071.03 from Perbio Science), 1× Penicillin-Streptomycin-Glutamine (10378-016 from Invitrogen), 250 μg/ml Hygromycin B (10687-010 from Invitrogen), 500 μg/ml Geneticin (10131-035 from Invitrogen)). Once confluence was reached, cells were passaged with a ⅓ dilution every 2-3 days using Accutase (L11-007 from PAA). Cells were maintained in a non-confluent state during routine culture.
In the PathHunter® PDGFRα, assay, the U2OS PDGFRα, PLCG1 cells from DiscoveRx® cultured up to 10 passages were used. Cells were seeded at 20.000 cells in 100 μl per well in 96-well white culture-treated microplates with clear bottom (3610 from Corning). The PathHunter® Cell Plating 16 Reagent (93-0563R16 from DiscoveRx®) was employed as seeding medium. Following 24 hours of culture in 5% CO2 at 37° C., 25 μl of a 5-fold concentrated agonist solution in Cell Plating 16 Reagent was used per well to stimulate the cells. Recombinant human PDGF-C from R&D Systems (1687-CC/CF; Va1235-Gly345) was applied as agonist. After 3 hours incubation at room temperature, 60 μl of PathHunter® detection reagent (93-0001 from DiscoveRx®; 1 part Galacton Star® Substrate, 5 parts Emerald II™ Solution, and 19 parts of PathHunter® Cell Assay Buffer) was added. Cells were placed at room temperature and in the dark for another hour before luminescence was measured with the LumiLITE™ microplate reader. With GraphPad Prism® software, a non-linear regression analysis was performed using the obtained luminescent values in order to generate a sigmoidal agonist dose-response curve with variable slope. The EC50 (i.e. half maximal effective concentration) and EC80 value (i.e. the effective concentration that leads to 80% of the maximal response) for human PDGF-C was calculated.
To evaluate the inhibitory activity of anti-human PDGF-C antibodies on PDGFRα, activation by human PDGF-C, equal volumes of […] concentrated solutions of anti-human PDGF-C antibodies and the EC80 of human PDGF-C, prepared in Cell Plating 16 Reagent, were mixed and the assay was performed as described above. As positive controls, an anti-human PDGF-C polyclonal goat IgG antibody (AF1560 from R&D Systems) and recombinant human PDGFRα, Fc chimera (6765-PR from R&D Systems) were employed. […]

[2] = biological target: T2, 15-mer, overlapping peptides covering the entire human PDGF-C molecule (Homo sapiens, UniProt Q9NRA1); assay: Epitope mapping ELISA on 15-mer overlapping peptides; assay type: binding; conditions: peptide coated 10 μg/mL, antibody 1 μg/mL
T2 construct: host or cells: chemical synthesis
Method: The binding of anti-PDGF-C antibodies to 15-mer, overlapping peptides covering the entire human PDGF-C molecule was assessed by ELISA. Antibodies included in this analysis are the five antibodies potently inhibiting activation of PDGF-Rα by PDGF-C, i.e. monoclonal antibodies 2D3, 5A2, 5H7, 16B1 and 29H1. Further included are two antibodies capable of binding to PDGF-C, but not or very poorly inhibiting activation of PDGF-Rα by PDGF-C, i.e. monoclonal antibodies 12E5 (IgG1) and 19F12 (IgG2b) (see Example 4). […] For all antibodies, it was confirmed that they bind to human PDGF-C and binding to full-length human PDGF-C was for all antibodies tested more efficient than binding to any of the peptides identified as described hereafter.
The indicated peptides where synthesized in an N-terminally biotinylated form and coated onto a neutravidin plate (Thermo Scientific, Cat. 15127) at a concentration of 10 μg/mL. The antibodies listed in the table were incubated in each well at a concentration of 1 μg/mL and, following washing, were then detected in a standard ELISA format using an appropriate, HRP-labeled secondary antibody (goat anti-mouse IgG-HRP for all antibodies except sc-80290, and goat anti-rat IgG-HRP for sc-80290). Each antibody was tested at least twice, and up to 4 times. A “+” in the table indicate that a signal to background >3 was found and confirmed at least once. The background signal was measured in the absence of peptide using both the primary and the secondary antibodies. Antibodies sc-80290 and MAB1560 were tested only against peptides 42-63 since this represents the fraction of the protein that was used as an immunogen.

glioblastoma tumor, U118 = assay: Antitumor effect against U118 glioblastoma xenograft; assay type: in vivo; conditions: for tolerability / body weight loss: 20 mg/kg IP twice a week; for TGI (%) Day 53 / TGI (%) Day 56 / TGI (%) Day 60 / TGI (%) Day 63 / TGI (%) Day 67: 20 mg/kg IP twice a week from day 28; for TGI (%) Day 53: day 53 post-tumor implantation; for TGI (%) Day 56: day 56 post-tumor implantation; for TGI (%) Day 60: day 60 post-tumor implantation; for TGI (%) Day 63: day 63 post-tumor implantation; for TGI (%) Day 67: day 67 post-tumor implantation
Method: For the evaluation of anti-tumor activity of the antibodies, animals were weighed and tumors measured 2 times weekly using a caliper. Tumor weights were calculated using the formula mass (mg)=[length (mm)×width (mm)^2]/2. Antitumor activity evaluation was done at the single dose of 20 mg/kg. A dosage producing a 20% body weight loss (bwl) or 10% or more drug deaths, was considered an excessively toxic dosage. Animal body weights included the tumor weights. The primary efficacy end point is the tumor growth inhibition (% TGI). Changes in tumor volume for each treated (T) and control (C) are calculated for each tumor by subtracting the tumor volume on the day of first treatment (staging day) from the tumor volume on the specified observation day. The median ΔT is calculated for the treated group and the median ΔC is calculated for the control group. Then the ratio ΔT/ΔC is calculated and expressed as a percentage of TGI: ΔT=Tt−T0 ΔC=Ct−C0 % TGI=[1−(median(Tt−T0)/median(Ct−C0)]*100
The antitumor effect of 29H1, 5A2 and 16B1 was evaluated against a measurable glioblastoma tumor, U118, which express both PDGF-C and its receptor, PDGFRa, S.C. implanted in female SCID Beige mice. Control group was treated with PBS alone. The antibodies were administered by an intraperitoneal (IP) injection, and treatment started on day 28 post-tumor implantation and was performed twice a week.

[3] = peptide binds secondary antibody

Molecule	binding to peptide No 58 (SEQ ID NO: 96) VLQLRPKTGVRGLHK [2]	tolerability / body weight loss (glioblastoma tumor, U118)	TGI (%) Day 53 (glioblastoma tumor, U118)	TGI (%) Day 56 (glioblastoma tumor, U118)	TGI (%) Day 60 (glioblastoma tumor, U118)	TGI (%) Day 63 (glioblastoma tumor, U118)	TGI (%) Day 67 (glioblastoma tumor, U118)	also measured
B1	+ (A “+” in the table indicate that a signal to background >3 was found and confirmed at least once)	well-tolerated with no tumor body weight loss	39.4%	53.0%	53.8%	42.8%	50.0%	IC50 ([1]; Table 5 first IC50 column, * average of 3 measurements): 3.45 nM; IC50 ([1]; Table 5 second IC50 column (separate experiment)): 0.87 nM; IC50 ([1]; Table 5 third IC50 column (separate experiment)): 0.24 nM
B2	+ (A “+” in the table indicate that a signal to background >3 was found and confirmed at least once)	well-tolerated with no tumor body weight loss	55.7%	58.5%	38.5%	43.4%	42.0%	binding to peptide No 9 (SEQ ID NO: 47) FPHTYPRNTVLVWRL [2, 3]: + (A “+” in the table indicate that a signal to background >3 was found and confirmed at least once); binding to peptide No 27 (SEQ ID NO: 65) EPGFCIHYNIVMPQF [2, 3]: + (A “+” in the table indicate that a signal to background >3 was found and confirmed at least once)
B3			8.25%		27.6%	11.5%	11.9%	tumor growth block (in words) (glioblastoma tumor, U118; ip, at the different time points evaluated): failed to block tumor growth
B4								inhibition of the PDGFRα activation by human PDGF-C (in words) [1]: apparently not inhibiting activation of PDGFR-α; IC50 value (nM) ([1]; humanized antibodies, * average of 3 measurements): nad
B5	+ (A “+” in the table indicate that a signal to background >3 was found and confirmed at least once)							
B6	+ (A “+” in the table indicate that a signal to background >3 was found and confirmed at least once)							

From patent US9884910B2, “Anti-PDGF-C antibodies” (ThromboGenics NV, priority 2012, dated 2018)
